Measured values taken from the supplement of paper PMC11908140.

B1: library; numbered along this chain (parent)
chain: MRKPRAAVGSGHRKQAASQEGRQKHAKNNSQAKPSACDGLARQPEEVVLQASVSSYHLFRDVAEVTAFRGSLLSWYDQEKRDLPWRRRAEDEMDLDRRAYAVWVSEVMLQQTQVATVINYYTGWMQKWPTLQDLASASLEEVNQLWAGLGYYSRGRRLQEGARKVVEELGGHMPRTAETLQQLLPGVGRYTAGAIASIAFGQATGVVDGNVARVLCRVRAIGADPSSTLVSQQLWGLAQQLVDPARPGDFNQAAMELGATVCTPQRPLCSQCPVESLCRARQRVEQEQLLASGSLSGSPDVEECAPNTGQCHLCLPPSEPWDQTLGVVNFPRKASRKPPREESSATCVLEQPGALGAQILLVQRPNSGLLAGLWEFPSVTWEPSEQLQRKALLQELQRWAGPLPATHLRHLGEVVHTFSHIKLTYQVYGLALEGQTPVTTVPPGARWLTQEEFHTAAVSTAMKKVFRVYQGQQPGTCMGSKRSQVSSPCSRKKPRMGQQVLDNFFRSHISTDAHSLNSAAQ

Variants of: B1
Test: 8OG:A repair function score (normalized; synonymous = 0, nonsense = -1) (normalized log-likelihood score); higher = more repair activity (WT-like)
Details: with 8OG:A DNA repair reporter (GFP) in HEK-293 MUTYH KO cells
How it was run: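 MUTYH knockout HEK-293 cells carrying lentiviral MUTYH cDNA NNN codon-scan libraries were grown with 10 pg/ml doxycycline and co-transfected with mCherry and a GFP reporter of 8OG:A repair. Viable mCherry+ cells were sorted at 72 h into GFP+ (repair) and GFP− bins, with three replicates per tile, and tile amplicons were sequenced. Rosace fitness scores for each tile were turned into a normalized repair function score anchored on the synonymous and nonsense distributions. Synonymous medians were set to 0 and nonsense medians to -1, and variants below 300 counts per million at the start were dropped.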

8OG:A repair function score: each site, then its substitutions
Q499: R -0.0243, K -0.00715, E 0.0257, N -0.0201
V485: M 0.0202, A -0.00727, W -0.0552, Q -0.0322, H 0.0165, S 0.0216, P -0.0106, L 0.0118, D 0.0102, Y -0.0379, F 0.0143, G -0.0147, I 0.0128, N -0.00234, K -0.00358, E -0.0478, R 0.0173, T 0.00314, C 0.0143
S483: Y -0.0745, K -0.04, R 0.0251, N 0.0224, L 0.00323, H 0.00458, C 0.025, I -0.00113, E -0.0311, F 0.0169, D 0.0208, V 0.0104, T -0.0473, M -0.00708, P 0.0199, A 0.00092, G -0.0331, W -0.033
P494: H 0.015, K -0.0663, G -0.0242, L -0.00201, D -0.00383, I 0.0172, F -0.0209, E 0.0133, Y -0.00726, Q -0.000555, R 0.00547, M -0.0511, T 0.0124, C 0.0281, V -0.0025, A 0.0124, W -0.0155, S -0.00543, N 0.0224
S490: K 0.00805, D -0.0147, H -0.00447, N 0.0157, E -0.0309, Y -0.00381, I -0.0509, F -0.0204, M -0.0481, P -0.0172, G -0.0115, A -0.00415, R 0.00301, W -0.0113, L 0.0149, C -0.0291, T 0.0117, Q 0.0011, V -0.0138
G497: P -0.0806, R -0.0166, L -0.0147, N 0.0269, M -0.0577, S -0.0201, A -0.0723, C -0.127, E 0.00606, I -0.0179, T -0.00191, W 0.0164, D -0.0474, Y -0.0861, K 0.0129, V -0.00253, F -0.0315, H -0.0394
V500: G 0.00844, F -0.0131, C -0.0118, E 0.0219, A 0.00946, D -0.00453
R482: Q 0.0234, Y 0.0178, W 0.0248, V 0.00231, P 0.0273, S 0.0216, T -0.0344
Q498: N -0.0368, M -0.0277, S 0.0168, V 0.00262, L -0.00389, E 0.0145, T 0.0263, A 0.011, F -0.0629, I 0.0195, C -0.0114, D 0.00936, K -0.00149, H -0.0117, P -0.0275, Y 0.0174, R 0.0169, G 0.0187, W 0.0137
R495: S 0.013, W 0.0272, A -0.0255, M 0.0166, C -0.00275, I -0.0255, D 0.0213, Y -0.0924, E 0.0282, T 0.0177, H 0.00173, Q -0.0181, V 0.0193, G -0.0152, F -0.0118, N -0.129, P 0.0276, K 0.00711, L 0.017
M496: Q -0.106, C -0.00499, H 0.0281, S -0.0675, I -0.0358, F 0.0105, P -3.86e-05, N 0.00145, L -0.0124, A 0.0241, D 0.00779, K 0.00764, E 0.00855, R 0.0258, T -0.0187, G -0.00643, W -0.045, Y 0.00737, V -0.0328
